According to patent publication US20260069707A1, “COMBINATION THERAPY WITH ANTIBODY-DRUG CONJUGATES AND HYALURONIDASES” (HALOZYME, INC., priority 2024, published 2026):

Details: pig, in vivo, sc
Description: Porcine serum was used as surrogate matrix to prepare calibration standards and quality controls for skin sample quantitation. Untreated blank porcine skin was provided for preparation of monitoring quality controls. The porcine skin was homogenized at an approximate ratio of 0.5 mL of buffer for every 100 mg of skin.
Porcine serum was used as surrogate matrix to prepare calibration standards and quality controls for the quantitation of skin samples. Supported liquid-liquid extraction was used for sample clean up. […] The porcine skin was homogenized at an approximate ratio of 0.5 mL of buffer for every 100 mg of skin.
Therefore, nominal time points were used for PK analyses. To estimate the serum concentration at time zero for intravenous (IV) data, a second-order polynomial regression was applied to the early serum time points (0.25, 1, and 2 hours). The intercept of the fitted polynomial curve was used as the extrapolated concentration at time zero. Skin concentration data (μg/mL) was normalized to total protein (mg/mL) per sample, resulting in values represented as μg/mg protein.
Pharmacokinetic parameters were calculated using noncompartmental methods performed in Microsoft Excel. The area under the concentration-time curve (AUC) was determined using the linear trapezoidal rule. For serum data, AUC0-7 was calculated using all available time points. For skin data, AUC1-7 was computed based on the three available time point measurements. The maximum observed concentration (Cmax) was identified directly from the dataset, and the time at which it occurred (Tmax) was recorded. All calculations were performed using Microsoft Excel.
This sample was divided vertically into two identical pieces. One skin sample was placed into a pre-weighed cryogenic tube and its weight was recorded then stored on dry ice prior to transfer to ≤−70° C. The other skin sample was processed for potential future histological assessment into OCT freezing media and frozen on dry ice.
Animals received two SC doses on their lower abdominal region.
Two cohorts were included in the follow-on study. […] Each animal had two full thickness skin biopsies taken post-mortem using a 12 mm punch. This sample was divided vertically into two identical pieces. One skin sample was placed into a pre-weighed cryogenic tube and its weight was recorded, then stored on dry ice prior to transfer to ≤−70° C. The other skin sample was processed into OCT molds for potential future histological assessment.
Tissue lysates were prepared based upon the weight of the sample at a ratio of 0.2 g/mL homogenization buffer (Tables 64 and 65). The total protein concentration of each homogenate was determined by BCA assay. The concentration of the total ADC (TADC), total antibody (TAB) and free payload (SN38) in each sample was then normalized to the protein concentration and reported in μg analyte per mg total protein.
In this initial study, six animals were used. […] Two cohorts were included in this study. Cohort 1 was euthanized 24 hours after treatment, while Cohort 2 was euthanized 48 hours after exposure to the two test solutions.

Sacituzumab govitecan [Trodelvy]
AUC(1-7) of free payload in tissue homogenates of injection site, Mean: 0.17 µg·days/mL | AUC(1-7) of total ADC (TADC) in tissue homogenates of injection site, Mean: 18.55 µg·days/mL | AUC(1-7) of total antibody (TAB) in tissue homogenates of injection site, Mean: 45.30 µg·days/mL | Cmax of free payload in tissue homogenates of injection site, Mean: 180 ng/mL | Cmax of total ADC (TADC) in tissue homogenates of injection site, Mean: 22860 ng/mL | Cmax of total antibody (TAB) in tissue homogenates of injection site, Mean: 29410 ng/mL | TADC/Free Payload, mean AUC(1-7): 10704% | TADC/Free Payload, mean Cmax: 12800% | TADC/TAB, mean AUC(1-7): 41% | TADC/TAB, mean Cmax: 78% | Total ADC Result: <0.100 µg/mL
